Data on two molecules can be found in publication PMC3726683, “Autophagy Activation Clears ELAVL1/HuR-Mediated Accumulation of SQSTM1/p62 during Proteasomal Inhibition in Human Retinal Pigment Epithelial Cells”.

For data set [1], the target named is T1, ELAVL1/HuR (rHuR) (human, UniProt Q15717 1-326). In words: AlphaScreen saturation binding; RNA titrated against 1 nM HuR; R2 0.97; Methods print 0.087±0.021 without unit; 25 mM HEPES pH 7.4, 100 mM NaCl, 0.1% BSA, room temperature, 30 min then 90 min with donor beads. The settings on record: protein: recombinant; tags: C-terminal Myc-His (vector section) or MYC/DDK (assay section, TP301562); label: biotin (BITEG); single strand.
T1 sequence (Q15717 whole entry): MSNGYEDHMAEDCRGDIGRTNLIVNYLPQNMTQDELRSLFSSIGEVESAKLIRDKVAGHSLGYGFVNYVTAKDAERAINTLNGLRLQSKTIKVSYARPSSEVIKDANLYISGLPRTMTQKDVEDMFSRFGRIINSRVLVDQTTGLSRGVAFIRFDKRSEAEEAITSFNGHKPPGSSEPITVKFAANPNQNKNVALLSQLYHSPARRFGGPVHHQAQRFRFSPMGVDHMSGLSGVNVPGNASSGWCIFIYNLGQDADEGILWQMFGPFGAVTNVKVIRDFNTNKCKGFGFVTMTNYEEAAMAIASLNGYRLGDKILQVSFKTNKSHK

In data set [2] the target is T1, ELAVL1/HuR (rHuR). The data set is described as follows: AlphaScreen saturation binding; RNA titrated against 1 nM HuR; R2 0.91; Methods print 0.207±0.024 without unit; 25 mM HEPES pH 7.4, 100 mM NaCl, 0.1% BSA, room temperature, 30 min then 90 min with donor beads. The settings on record: protein: recombinant; tags: C-terminal Myc-His (vector section) or MYC/DDK (assay section, TP301562); label: biotin (BITEG); single strand. Background: In Alpha technology, singlet oxygen from a donor bead excites a nearby acceptor bead.

As for AUUAUUUAUUAUUUAUUUAUUAUUUA (ssRNA) [TNFalpha ARE probe], the dissociation constant (Kd) in the data set with ELAVL1/HuR (rHuR) [1] was 3.83 ± 0.69 nM.
Turning to GUUUUAAAUGACUCAUAGGUCCCUGACAUUUAGUUGAUU (ssRNA) [SQSTM1/p62 ARE probe], the dissociation constant (Kd) with ELAVL1/HuR (rHuR) [2] amounted to 30.9 ± 13.2 nM.

What is called Kd is the equilibrium constant for the complex coming apart.
